Assays:
[1] = target: T1, mouse ligand (single-chain IL27: EBI3 linked to IL-27 p28) (Mus musculus, UniProt O35228+Q8K3I6); assay: Surface plasmon resonance (BIACORE 3000) kinetic rate and affinity constants; format: binding; settings: SPR
T1 construct: purchased R&D Systems
T1 sequence (O35228+Q8K3I6 with tags, fused parts or gaps): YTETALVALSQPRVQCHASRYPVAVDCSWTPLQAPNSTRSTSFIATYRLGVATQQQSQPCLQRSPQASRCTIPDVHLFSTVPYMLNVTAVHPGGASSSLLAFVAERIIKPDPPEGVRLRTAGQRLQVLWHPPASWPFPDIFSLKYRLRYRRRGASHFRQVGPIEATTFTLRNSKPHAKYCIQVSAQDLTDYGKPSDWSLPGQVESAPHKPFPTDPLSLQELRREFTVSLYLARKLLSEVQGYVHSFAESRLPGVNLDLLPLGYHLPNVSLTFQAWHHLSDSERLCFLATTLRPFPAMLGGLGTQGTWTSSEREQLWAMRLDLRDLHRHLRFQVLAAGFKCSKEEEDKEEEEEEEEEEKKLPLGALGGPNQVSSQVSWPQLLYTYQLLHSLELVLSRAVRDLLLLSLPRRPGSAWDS
Method: Kinetic rate and affinity constant values for the mouse (IL27RAm(mFc1), Example 1) and human (IL27RA-Fc5, Example 2) soluble receptors were obtained by surface plasmon resonance (SPR) using an automated instrument (BIACORE 3000; Biacore International AB, Uppsala, Sweden). The mouse soluble receptor was tested against mouse ligand (lot A1418F), and the human soluble receptor was tested against both mouse (A1426F) and human (A1534F) ligands. For determination of the kinetic rate constants for the receptor-ligand interactions, the gp130 molecule was not included as part of the receptor complex.
The IL27 ligands used in this study were single-chain molecules comprising EBI3 connected by its C-terminus to the N-terminus of IL-27 p28 via a polypeptide linker. (R&D Systems) Each of the ligands included an amino-terminal peptide tag.
For the mouse IL27RA study, the soluble receptor was captured onto the chip surface by an isotype-specific anti-mouse Fc antibody (obtained from Jackson ImmunoResearch Laboratories, Inc., West Grove, Pa.) covalently immobilized to the chip (BIACORE CM5 chip) using the standard amine coupling protocol specified by the instrument manufacturer. For the human IL27RA studies, the soluble receptor was directly and covalently immobilized to the chip via the amine coupling protocol. In all studies, ligand was injected over the active (receptor-bound) surface at varying concentrations to obtain a series of binding curves.
Experimental conditions were optimized for determination of kinetic rate constant values. The molecular densities of the soluble receptor protein loaded onto the chip surface were targeted to obtain maximum IL27 binding levels (Rmax) of ≦20 RU. The analyte (ligand) was injected over the receptor surface at a flow rate of […] at a concentration range of approximately 0.05 to 10 nM, allowing for an association phase of 3 minutes and a dissociation phase of 10 minutes. […]
All data were assessed using software provided with the instrument (BIACORE Evaluation software v. 3.2). […]

[2] = target: T2, huIL-27 (Homo sapiens, UniProt Q14213+Q8NEV9); assay: Phospho-STAT3 (BIO-PLEX) neutralization of IL-27 by soluble receptors, total human PBMCs; format: cell-based; settings: ligand huIL-27 at EC90 (2 nM)
T2 construct: purchased R&D Systems
T2 sequence (Q8NEV9 29-243): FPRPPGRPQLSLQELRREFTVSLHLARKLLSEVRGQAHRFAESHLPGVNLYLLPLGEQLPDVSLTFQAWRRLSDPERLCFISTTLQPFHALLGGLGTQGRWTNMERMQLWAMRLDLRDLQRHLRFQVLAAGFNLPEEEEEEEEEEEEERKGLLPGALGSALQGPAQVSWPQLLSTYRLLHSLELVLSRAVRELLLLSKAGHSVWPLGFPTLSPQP
T2 sequence (Q14213 21-229): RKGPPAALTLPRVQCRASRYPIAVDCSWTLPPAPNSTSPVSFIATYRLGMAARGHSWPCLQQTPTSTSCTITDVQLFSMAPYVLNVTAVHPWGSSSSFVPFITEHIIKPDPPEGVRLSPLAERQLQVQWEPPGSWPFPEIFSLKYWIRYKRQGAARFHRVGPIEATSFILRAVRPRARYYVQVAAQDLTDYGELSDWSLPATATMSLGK
Description: Whole mouse spleens were harvested from C57 B1/6 mice and washed two times with 1×PBS before being plated out at 2×10^5 cells/well in assay media (RPMI 1640 plus 10% fetal bovine serum) in 96-well, round-bottom tissue culture plates. Total human PBMC (peripheral blood mononuclear cells) were thawed from a frozen vial collected from a leukapherisis donation and washed two times with 1×PBS before being plated out at 10^6 cells/well in assay media in 96-well, round-bottom tissue culture plates. […] Following pre-incubation, treatments were added to the plates containing the cells and incubated together at 37° C. for 15 minutes.
Following incubation, cells were washed with ice-cold wash buffer (BIO-PLEX Cell Lysis Kit, BIO-RAD Laboratories, Hercules, Calif.) and put on ice to stop the reaction according to manufacturer's instructions. […]
Capture beads (BIO-PLEX Phospho-Stat3 Assay, BIO-RAD Laboratories) were combined with 50 μL of 1:1 diluted lysates and added to a 96-well filter plate according to manufacture's instructions (BIO-PLEX Phosphoprotein Detection Kit, BIO-RAD Laboratories). […] After the final wash, beads were resuspended in 125 μL/well of bead suspension buffer, shaken for 30 seconds, and read on an array reader (BIO-PLEX, BIO-RAD Laboratories) according to the manufacture's instructions. Data were analyzed using analytical software (BIO-PLEX MANAGER 3.0, BIO-RAD Laboratories). […]

ka ([1]; 1:1 binding model): 1e+07 M⁻¹ s⁻¹ | kd ([1]; 1:1 binding model): 0.0012 s⁻¹ | Kd ([1]; Kd=kd/ka): 0.12 nM | IC50 [2]: 1370 nM
B1: IL-27RAm(mFc1): Extracellular domain of mouse IL27RA fused to a wild type BALB/c mouse gamma2a constant region Fc tag (protein)
chain: MNRLERVALARLETPRLEGLLELELESLEMSLELELEGTRPRHGSPRGPRLEQCYSVGPRLEGILENCSWGLPRLEGDLEGLTPRPRVLEYHQSQKYHPRNRVWGLVKVPRSKQSWVTIPRRGLQFTMADKLELEIWGTQKGRPRLEWSSVSVASNLEGLTQMKPRDTPRQIFSQVASPISGLGLATLEGLATVQWAPRPRVWPRPRQKALETCQFRYKGLCQAGLAWTRLEGLPRQLEKTDGLETPRVGLMQNLEGLPRGTCYQVSGRCQVGLNGYPRWGGLWSSPRLESFQTPRFLEDPRGLDVWVSGTVCGLTSGKRAALELEVWKDPRRPRCVQVTYTVWFGAGDITTTQGLGLVPRCCKSPRVPRAWMGLWAVVSPRGNSTSWVPRPRTNLESLEVCLEAPRGLSAPRCDVGVSSADGSPRGIKVTWKQGTARGSPRLEGLYVVASPWAQDGDSLEDKLENWTRLEPRPRGNLESTLELEPRGGLFKGGVPRYRITVTAVYSGGLEAAAPRSVWGFRGLGLLEVPRLEAGPRAVWRLEPRDDPRPRGTPRVVALAWGGLVPRRHQLERGQATHYTFCIQSRGLESTVCRNVSSQTQTATLEPRNLEHSGSFKLEWVTVSTVALAGQGPRPRGPRDLESLEHLEPRDNRIRWKALEPRWFLESLEWGLELELEMGCGLESLEASTRCLEQARCLEHWRHKLELEPRQWIWGLRVPRDPRANSNSGQPRYIKGLVSLEPRQPRPRKDGPRILEGLVGLGLVGLLEQPRVVGLSPRKASAPRIYSGYGLKHFLEPRTPRGLGLLEGLELEV
modifications: left off: a dimerising Fc or GST
notes: Extracellular domain of mouse IL27RA fused to a wild type BALB/c mouse gamma2a constant region Fc tag

From patent US20100093076A1, “SOLUBLE IL-27 RECEPTOR” (priority 2006, published 2010)
